In the assay the target is T1, human glycyl-tRNA synthetase, wild type (GlyRS^WT) (human, UniProt P41250 55-739).
T1 construct: also called WT GlyRS; GARS
T1 sequence: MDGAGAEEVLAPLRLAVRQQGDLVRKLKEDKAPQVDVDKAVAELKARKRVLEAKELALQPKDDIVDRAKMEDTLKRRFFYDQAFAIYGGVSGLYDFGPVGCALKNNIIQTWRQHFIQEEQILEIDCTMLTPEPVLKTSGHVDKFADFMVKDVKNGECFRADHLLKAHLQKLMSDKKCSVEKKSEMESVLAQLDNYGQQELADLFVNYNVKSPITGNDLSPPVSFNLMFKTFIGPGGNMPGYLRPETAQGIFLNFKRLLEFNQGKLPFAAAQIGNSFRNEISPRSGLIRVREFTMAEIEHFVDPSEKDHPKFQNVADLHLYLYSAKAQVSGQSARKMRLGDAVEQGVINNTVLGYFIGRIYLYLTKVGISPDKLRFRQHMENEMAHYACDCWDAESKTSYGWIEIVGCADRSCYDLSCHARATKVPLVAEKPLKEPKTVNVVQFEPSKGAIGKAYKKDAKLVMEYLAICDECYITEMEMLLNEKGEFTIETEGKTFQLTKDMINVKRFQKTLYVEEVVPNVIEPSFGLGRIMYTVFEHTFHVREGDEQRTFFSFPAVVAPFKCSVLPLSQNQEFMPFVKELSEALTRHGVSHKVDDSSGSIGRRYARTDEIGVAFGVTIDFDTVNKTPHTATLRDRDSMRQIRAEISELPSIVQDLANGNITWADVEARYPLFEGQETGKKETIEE
The assay is described as follows: in vitro IP: Fc-fused Nrp1 domain constructs on Protein A resin, recombinant GlyRS added, blot GlyRS.

The text below walks through data of patent US20180313836A1 (Scripps Research, published 2018).

B1: b2 (on Fc) (Fc fusion)
chain: KITDYPCSGMLGMVSGLISDSQITSSNQGDRNWMPENIRLVTSRSGWALPPAPHSYINEWLQIDLGEEKIVRGIIIQGGKHRENKVFMRKFKIGYSNNGSDWKMIMDDSKRKAKSFEGNNNYDTPELRTFPALSTRFIRIYPERATHGGLGLRMELLGCEVEAPTAGPTTPNGNLVDECDDDQANCHSGTGDDFQLTGGTTVLATEKPTVIDSTIQSEF
notes: also called Nrp1 b2 domain (res. Lys425-Phe643) fused to human IgG Fc; not shown: C-terminal human IgG Fc domain (and any V5-His tag from the vector); The CD33 signal peptide is cleaved on secretion
With B1, the binding result is “no binding”.

B2: c-Fc (drawn as the c box on Fc) (Fc fusion)
chain: TAGPTTPNGNLVDECDDDQANCHSGTGDDFQLTGGTTVLATEKPTVIDSTIQSEFPTYGFNCEFGWGSHKTFCHWEHDNHVQLKWSVLTSKTGPIQDHTGDGNFIYSQADENQKGKVARLVSPVVYSQNSAHCMTFWYHMSGSHVGTLRVKLRYQKPEEYDQLVWMAIGHQGDHWKEGRVLLHKSLKLYQVIFEGEIGKGNLGGIAVDDISINNHISQEDCAKPADLDKKNPEIKIDETGSTPGYEGEGEGD
notes: also called Nrp1 c domain (res. Thr589-Asp840) fused to human IgG Fc; not shown: C-terminal human IgG Fc domain (and any V5-His tag from the vector); The CD33 signal peptide is cleaved on secretion
In the case of B2, the binding result was “no binding”.
